Data set [1] concerns the target T1, His6-T7 RNA polymerase (bacteriophage T7, UniProt P00573 1-883). The data set is described as follows: smFRET; no NTPs; ~0.2 FRET; Transcription-scanning buffer: 40 mM Tris-HCl pH 7.9, 5 mM Mg2+, 60 mM Na+, 0.2 mg/ml BSA, 2 mM Trolox, PCA/PCD; 0.5-5 nM RNAP, 20 nM AID; temperature and ssDNA.
The target in data set [2] is T1, His6-T7 RNA polymerase. As to the kind of experiment: smFRET; no NTPs; ~0.4 FRET; Transcription-scanning buffer: 40 mM Tris-HCl pH 7.9, 5 mM Mg2+, 60 mM Na+, 0.2 mg/ml BSA, 2 mM Trolox, PCA/PCD; 0.5-5 nM RNAP, 20 nM AID; temperature and ssDNA.
Data set [3] deals with T1, His6-T7 RNA polymerase. As to the kind of experiment: smFRET; no NTPs; ~0.85 FRET; Transcription-scanning buffer: 40 mM Tris-HCl pH 7.9, 5 mM Mg2+, 60 mM Na+, 0.2 mg/ml BSA, 2 mM Trolox, PCA/PCD; 0.5-5 nM RNAP, 20 nM AID; temperature and ssDNA.
Data set [4] has as its target T1, His6-T7 RNA polymerase. The data set is described as follows: smFRET; no NTPs; Transcription-scanning buffer: 40 mM Tris-HCl pH 7.9, 5 mM Mg2+, 60 mM Na+, 0.2 mg/ml BSA, 2 mM Trolox, PCA/PCD; 0.5-5 nM RNAP, 20 nM AID; temperature and ssDNA.
The target in data set [5] is T1, His6-T7 RNA polymerase. The data set is described as follows: smFRET; no NTPs; ~0.95 FRET; Transcription-scanning buffer: 40 mM Tris-HCl pH 7.9, 5 mM Mg2+, 60 mM Na+, 0.2 mg/ml BSA, 2 mM Trolox, PCA/PCD; 0.5-5 nM RNAP, 20 nM AID; temperature and ssDNA.

T1 sequence (P00573 whole entry): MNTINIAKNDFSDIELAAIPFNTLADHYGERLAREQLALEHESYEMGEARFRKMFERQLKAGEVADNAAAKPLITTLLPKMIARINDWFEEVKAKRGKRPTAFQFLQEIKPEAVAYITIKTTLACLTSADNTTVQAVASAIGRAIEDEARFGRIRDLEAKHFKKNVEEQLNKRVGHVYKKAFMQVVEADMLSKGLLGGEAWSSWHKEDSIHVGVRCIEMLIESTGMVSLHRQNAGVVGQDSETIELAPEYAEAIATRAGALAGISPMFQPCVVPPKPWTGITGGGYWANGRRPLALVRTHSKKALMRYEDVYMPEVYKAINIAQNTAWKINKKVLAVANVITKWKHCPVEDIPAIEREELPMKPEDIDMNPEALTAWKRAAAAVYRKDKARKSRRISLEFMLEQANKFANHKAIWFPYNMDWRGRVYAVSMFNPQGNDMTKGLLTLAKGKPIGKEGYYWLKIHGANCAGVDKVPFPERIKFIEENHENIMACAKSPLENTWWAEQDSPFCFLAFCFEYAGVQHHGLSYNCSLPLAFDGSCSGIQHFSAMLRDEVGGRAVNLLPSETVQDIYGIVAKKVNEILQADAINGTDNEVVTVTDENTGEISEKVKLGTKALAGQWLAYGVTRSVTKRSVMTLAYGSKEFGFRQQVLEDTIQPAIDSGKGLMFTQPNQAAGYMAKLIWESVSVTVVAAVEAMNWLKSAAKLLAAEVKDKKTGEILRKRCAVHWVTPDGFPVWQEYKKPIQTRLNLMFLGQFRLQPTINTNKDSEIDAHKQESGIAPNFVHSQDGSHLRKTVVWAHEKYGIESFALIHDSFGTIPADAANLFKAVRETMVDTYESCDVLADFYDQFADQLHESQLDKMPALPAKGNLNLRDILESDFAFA

B1: 69/66-mer T7 promoter dsDNA (promoter 39 bp from Cy3 end) (dsDNA)
DNA 1: TTTCAGAGATGCATAATACGACTCACTATAGGGAGAAAAGGGGAAAGCAAAGAGGAAAGGTGAGGAGGT
DNA 2: ACCTCCTCACCTTTCCTCTTTGCTTTCCCCTTTTCTCCCTATAGTGAGTCGTATTATGCATCTCTG
With B1, the binding result in data set [1] is “binds”.

B2: T7 promoter dsDNA shifted 10 bp downstream (29 bp from Cy3 end) (dsDNA)
DNA 1: TTTGTGAGGAGGTCAGAGATGCATAATACGACTCACTATAGGGAGAAAAGGGGAAAGCAAAGAGGAAAG
DNA 2: CTTTCCTCTTTGCTTTCCCCTTTTCTCCCTATAGTGAGTCGTATTATGCATCTCTGACCTCCTCAC
For the molecule B2, in data set [2], the binding result is recorded as “binds”.

B3: T7 promoter dsDNA shifted 20 bp downstream (19 bp from Cy3 end) (dsDNA)
DNA 1: TTTAAGAGGAAAGGTGAGGAGGTCAGAGATGCATAATACGACTCACTATAGGGAGAAAAGGGGAAAGCA
DNA 2: TGCTTTCCCCTTTTCTCCCTATAGTGAGTCGTATTATGCATCTCTGACCTCCTCACCTTTCCTCTT
As to B3, the binding result in data set [3] is listed as “binds”.

B4: No-promoter dsDNA 66-mer (dsDNA)
DNA 1: CAGAGATGCAGCCGTCCGTATCCGTATTGTAGAAAAGGGGAAAGCAAAGAGGAAAGGTGAGGAGGT
DNA 2: ACCTCCTCACCTTTCCTCTTTGCTTTCCCCTTTTCTACAATACGGATACGGACGGCTGCATCTCTG
For B4, the binding result in data set [4] is reported as “no binding”.

B5: T7 promoter dsDNA shifted 30 bp downstream (9 bp from Cy3 end) (dsDNA)
DNA 1: TTTGGGGAAAGCAAAGAGGAAAGGTGAGGAGGTCAGAGATGCATAATACGACTCACTATAGGGAGAAAA
DNA 2: TTTTCTCCCTATAGTGAGTCGTATTATGCATCTCTGACCTCCTCACCTTTCCTCTTTGCTTTCCCC
On to B5, for which the binding result in data set [5] is listed as “binds”.

These data come from article PMC4703863.
